The text below walks through data of patent US6087330A, “Process to inhibit binding of the integrin α4 β1 to VCAM-1 or fibronectin and cyclic peptides therefor” (Texas Biotechnology Corporation, priority 1998, dated 2000).

For this assay, the target named is T1, integrin α4 β1 binding to VCAM-1 (Homo sapiens, UniProt P05556+P13612).
T1 construct: endogenous in cells; host or cells: HL-60 cells (integrin α4β1); VCAM-IgG fusion made in house in transfected COS cells
In words: VCAM-1/α4 β1 Binding Assay (binding of labeled HL-60 cells to VCAM-IgG fusion protein on magnetic beads). The note with it: 10 min at room temperature. Format: cell-based. On the procedure:
Peptides were assayed for their ability to inhibit the binding of the integrin α4 β1 to VCAM. […] The assays are described below.
VCAM-1/α4 β1 Binding Assay
The assay involves determining the ability of cells that express α4 β1 to bind directly to purified VCAM. The integrin-expressing cell type used in this assay was HL-60, a human promyelocytic line.
An expression vector was designed such that a region of VCAM known to bind the integrin was expressed as a fusion protein with mouse IgG. A cDNA containing the two N-terminal domains of human VCAM was generated by the polymerase chain reaction (PCR) from a full length VCAM cDNA. Similarly, a cDNA containing the hinge, CH2 and CH3 regions of mouse IgG, was amplified by PCR from cDNA made from total RNA isolated from the hybridoma cell line 402C10. […]
HL-60 cells were fluorescently labeled with Calcein AM C-3099 (Molecular Probes) and resuspended in 1 ml of binding buffer (Hank's balanced salt solution, pH 7.4, 1.0 mM CaCl2, 1.0 mM MgCl2). […] The remaining bound cells were lysed in 50 mM Tris, pH 7.4, 5.0 mM EDTA, 1.0% NP-40 and quantitated by fluorimetry using a Millipore Cytofluor 2350 fluorimeter. Dose response curves were calculated and IC50 values determined. Alternatively, the percent adhesion was determined at a single peptide concentration for comparison among peptides.

Bridges are numbered along the chain shown (N, C = ends). Where no end group is shown, it is not given here.

T1 sequence (P13612 34-1032): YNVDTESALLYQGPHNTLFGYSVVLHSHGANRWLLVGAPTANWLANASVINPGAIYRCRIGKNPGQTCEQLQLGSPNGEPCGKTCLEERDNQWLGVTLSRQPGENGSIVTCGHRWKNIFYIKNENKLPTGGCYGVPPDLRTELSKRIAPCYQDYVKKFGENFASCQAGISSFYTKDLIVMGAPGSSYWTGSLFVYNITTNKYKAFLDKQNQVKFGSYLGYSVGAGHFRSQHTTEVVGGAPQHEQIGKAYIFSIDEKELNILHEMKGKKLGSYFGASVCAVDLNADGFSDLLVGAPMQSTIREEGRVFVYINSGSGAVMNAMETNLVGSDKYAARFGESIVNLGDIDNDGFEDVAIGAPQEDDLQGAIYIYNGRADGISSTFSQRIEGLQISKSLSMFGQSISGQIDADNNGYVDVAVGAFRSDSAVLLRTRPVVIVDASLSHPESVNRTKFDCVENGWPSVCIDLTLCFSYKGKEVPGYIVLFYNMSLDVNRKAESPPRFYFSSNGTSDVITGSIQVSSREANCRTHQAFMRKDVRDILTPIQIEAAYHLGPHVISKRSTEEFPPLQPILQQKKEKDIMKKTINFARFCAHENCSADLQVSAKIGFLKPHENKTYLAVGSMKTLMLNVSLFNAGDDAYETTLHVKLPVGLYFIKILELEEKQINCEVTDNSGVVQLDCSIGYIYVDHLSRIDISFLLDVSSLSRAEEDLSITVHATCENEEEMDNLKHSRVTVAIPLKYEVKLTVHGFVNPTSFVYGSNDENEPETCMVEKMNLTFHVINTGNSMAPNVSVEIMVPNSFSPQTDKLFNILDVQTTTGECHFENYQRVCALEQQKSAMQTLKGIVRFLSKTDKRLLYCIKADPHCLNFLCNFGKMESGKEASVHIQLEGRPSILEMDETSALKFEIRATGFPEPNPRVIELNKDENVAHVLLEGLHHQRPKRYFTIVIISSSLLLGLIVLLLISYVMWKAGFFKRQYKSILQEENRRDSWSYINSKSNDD
T1 sequence (P05556 21-798): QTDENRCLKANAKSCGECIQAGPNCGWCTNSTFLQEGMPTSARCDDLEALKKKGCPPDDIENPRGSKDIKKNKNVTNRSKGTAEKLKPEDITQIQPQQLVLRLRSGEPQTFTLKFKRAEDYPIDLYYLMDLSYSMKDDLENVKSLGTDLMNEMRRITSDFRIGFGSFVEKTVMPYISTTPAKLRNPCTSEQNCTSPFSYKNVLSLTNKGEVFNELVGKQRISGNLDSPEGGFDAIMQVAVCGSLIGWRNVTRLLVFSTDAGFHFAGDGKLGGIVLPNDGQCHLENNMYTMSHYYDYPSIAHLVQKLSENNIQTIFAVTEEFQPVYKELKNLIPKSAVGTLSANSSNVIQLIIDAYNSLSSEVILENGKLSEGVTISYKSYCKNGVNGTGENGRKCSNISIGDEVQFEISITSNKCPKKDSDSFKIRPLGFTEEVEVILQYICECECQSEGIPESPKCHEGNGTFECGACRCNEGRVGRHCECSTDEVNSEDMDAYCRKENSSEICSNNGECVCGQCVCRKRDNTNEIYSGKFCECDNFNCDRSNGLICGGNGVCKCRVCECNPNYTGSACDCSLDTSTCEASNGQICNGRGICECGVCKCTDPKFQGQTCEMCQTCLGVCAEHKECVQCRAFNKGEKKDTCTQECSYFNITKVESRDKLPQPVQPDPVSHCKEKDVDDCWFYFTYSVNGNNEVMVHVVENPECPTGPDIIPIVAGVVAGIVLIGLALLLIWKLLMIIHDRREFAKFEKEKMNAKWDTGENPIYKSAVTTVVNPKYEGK

In the case of “Cys-Trp-Leu-Asp-Leu-Cys-acid (CWLDLC-OH; disulfide 1-6; not fully specified (N-terminus, bridges); printed as Cys-Trp-Leu-Asp-Leu-Cys-acid) [SEQ ID NO:28]”, the “concentration of peptide found to significantly inhibit the binding of α4 β1 integrin to VCAM-1” value was “less than 10 μM”.

With “Cys-Trp-Leu-Asp-Tyr-Cys-acid (CWLDYC-OH; disulfide 1-6; not fully specified (N-terminus, bridges); printed as Cys-Trp-Leu-Asp-Tyr-Cys-acid) [SEQ ID NO:29]”, the “concentration of peptide found to significantly inhibit the binding of α4 β1 integrin to VCAM-1” value is listed as “less than 10 μM”.
